Experimental data: PMC4694715

How the values were obtained:
[1] = biological target: CD20 (human (endogenous in Ramos)) (UniProt P11836)
[2] = biological target: CD20 (human (endogenous in Ramos)) (UniProt P11836); remark: listed apart in the source
[3] = biological target: CD20 (human (endogenous in Ramos)) (UniProt P11836); experiment: flow cytometry on cells; 1E6 Ramos cells incubated with 0.5μg (16.7nM) or 1μg (33.3nM) of the RTX variant (non-saturating amounts); bound antibody detected with FITC murine monoclonal anti human kappa light chain antibody; read-out: MFI of the variant divided by MFI of the IgG1 control

Sequence of UniProt P11836 (P11836 whole entry): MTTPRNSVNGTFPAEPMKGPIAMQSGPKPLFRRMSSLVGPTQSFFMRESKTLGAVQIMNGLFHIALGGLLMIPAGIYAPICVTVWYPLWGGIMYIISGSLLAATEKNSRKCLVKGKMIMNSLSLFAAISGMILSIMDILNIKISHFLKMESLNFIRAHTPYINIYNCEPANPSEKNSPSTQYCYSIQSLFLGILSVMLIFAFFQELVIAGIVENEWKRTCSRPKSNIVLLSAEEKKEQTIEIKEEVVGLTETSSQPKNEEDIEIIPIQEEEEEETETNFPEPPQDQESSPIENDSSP

With Rituximab IgG4P (antibody) the apoptosis of Ramos cells after 24h (AnnexinV-FITC positive cells, absolute), 2000ng antibody, no crosslinker [1] was 41 % of cells and the apoptosis of Ramos cells after 24h, normalised to the IgG1 control without crosslinker (100%) (% of IgG1 control) [2] was 441.

For Rituximab IgG1 a1 (antibody), the apoptosis of Ramos cells after 24h (AnnexinV-FITC positive cells, absolute), 2000ng antibody, no crosslinker [1] was 11 % of cells.

In the case of Rituximab IgG2 (antibody), the apoptosis of Ramos cells after 24h (AnnexinV-FITC positive cells, absolute), 2000ng antibody, no crosslinker [1] is reported as 49 % of cells, the apoptosis of Ramos cells after 24h, normalised to the IgG1 control without crosslinker (100%) (% of IgG1 control) [2] is reported as 546 and the IgG1 signal ratio (MFI of RTX variant divided by MFI of IgG1 control) at 0.5μg [3] is reported as 0.37. For the same substance, the IgG1 signal ratio (MFI of RTX variant divided by MFI of IgG1 control) at 1μg [3] was 0.42.
